Experimental data as given in US20180251570A1 (Bayer, published 2018).

T1: human tissue factor pathway inhibitor (TFPI) (human, UniProt P10646 29-304, limits assumed)
T1 construct: also called human TFPI (American Diagnostica)
T1 sequence (looked up): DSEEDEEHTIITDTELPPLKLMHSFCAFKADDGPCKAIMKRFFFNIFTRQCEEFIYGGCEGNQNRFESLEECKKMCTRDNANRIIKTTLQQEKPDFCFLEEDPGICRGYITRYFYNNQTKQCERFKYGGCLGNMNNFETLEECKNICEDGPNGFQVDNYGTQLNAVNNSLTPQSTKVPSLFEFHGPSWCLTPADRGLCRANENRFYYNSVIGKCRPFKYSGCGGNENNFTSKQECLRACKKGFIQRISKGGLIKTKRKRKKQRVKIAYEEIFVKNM

B1: parental IgG (parental anti-TFPI antibody) (antibody)
heavy: EVQLVESGGGLVQPGGSLRLSCAASGFTFSSYGMDWVRQAPGKGLEWVSSIRGSRGSTYYADSVKGRFTISRDNSKNTLYLQMNSLRAEDTAVYYCARLYRYWFDYWGQGTLVTVSSASTKGPSVFPLAPCSRSTSESTAALGCLVKDYFPEPVTVSWNSGALTSGVHTFPAVLQSSGLYSLSSVVTVPSSNFGTQTYTCNVDHKPSNTKVDKTVERKCCVECPPCPAPPVAGPSVFLFPPKPKDTLMISRTPEVTCVVVDVSHEDPEVQFNWYVDGVEVHNAKTKPREEQFNSTFRVVSVLTVVHQDWLNGKEYKCKVSNKGLPAPIEKTISKTKGQPREPQVYTLPPSREEMTKNQVSLTCLVKGFYPSDIAVEWESNGQPENNYKTTPPMLDSDGSFFLYSKLTVDKSRWQQGNVFSCSVMHEALHNHYTQKSLSLSPG
light: SYELTQPPSVSVSPGQTARITCSGDNLPKYYAHWYQQKPGQAPVVVIFYDVNRPSGIPERFSGSNSGNTATLTISGTQAMDEADYYCQAWWSSTPVFGGGTKLTVLGQPKAAPSVTLFPPSSEELQANKATLVCLISDFYPGAVTVAWKADSSPVKAGVETTTPSKQSNNKYAASSYLSLTPEQWKSHRSYSCQVTHEGSTVEKTVAPTECS
notes: Expressed in HEK293 6E cells; also called Parent IgG; WT antibody
B2: IgG-linker1 (protease-regulated anti-TFPI IgG, undigested) (antibody)
light: SYELTQPPSVSVSPGQTARITCSGDNLPKYYAHWYQQKPGQAPVVVIFYDVNRPSGIPERFSGSNSGNTATLTISGTQAMDEADYYCQAWWSSTPVFGGGTKLTVLGGGGSLVPRGSGGGGSGQPKAAPSVTLFPPSSEELQANKATLVCLISDFYPGAVTVAWKADSSPVKAGVETTTPSKQSNNKYAASSYLSLTPEQWKSHRSYSCQVTHEGSTVEKTVAPTECS
heavy: EVQLVESGGGLVQPGGSLRLSCAASGFTFSSYGMDWVRQAPGKGLEWVSSIRGSRGSTYYADSVKGRFTISRDNSKNTLYLQMNSLRAEDTAVYYCARLYRYWFDYWGQGTLVTVSSASGGGGSLVPRGSGGGGSTKGPSVFPLAPCSRSTSESTAALGCLVKDYFPEPVTVSWNSGALTSGVHTFPAVLQSSGLYSLSSVVTVPSSNFGTQTYTCNVDHKPSNTKVDKTVERKCCVECPPCPAPPVAGPSVFLFPPKPKDTLMISRTPEVTCVVVDVSHEDPEVQFNWYVDGVEVHNAKTKPREEQFNSTFRVVSVLTVVHQDWLNGKEYKCKVSNKGLPAPIEKTISKTKGQPREPQVYTLPPSREEMTKNQVSLTCLVKGFYPSDIAVEWESNGQPENNYKTTPPMLDSDGSFFLYSKLTVDKSRWQQGNVFSCSVMHEALHNHYTQKSLSLSPG
notes: Expressed in HEK293 6E cells; also called IgG2-linker1

Molecular target: T1, human tissue factor pathway inhibitor …
Assay: BIACORE kinetics, CM4 chip with low density of amine-coupled human TFPI, antibody injected
Protocol: A CM4 sensor chip was immobilized with a low density of human TFPI using an amine coupling kit (GE HealthCare). Kinetic assays of parental IgG and IgG-linker1 were conducted using different concentration of the antibodies, followed by regeneration with pH 1.5 glycine buffer. The parental IgG and IgG-linker1 antibodies at a concentration of 1 μg were digested with 1 unit of biotinylated thrombin (Novagen) for 1 hr at 37° C. The antibodies with or without digestion were injected to a BIACORE™ system for TFPI-binding analysis.

| Binder | kon [M⁻¹ s⁻¹] |
| --- | --- |
| B1 | 1.54e+06 |
| B2 | 1.9e+06 |
